Data: patent publication US8697369B2, “Method for screening a test substance for activating a receptor associated with FGF 21 activity” (National Institute of Advanced Industrial Science and …, priority 2007, dated 2014)
“Also recorded” adds a separate entry of the source. Blank lines part the entries; values can stand above or below the molecule they belong to.

Columns and labels:
Type in all cases: cell-based
[1] = system: 3T3-L1 fibroblasts forced to express betaKlotho; test: Phosphorylation of FRS2 and MAPK in undifferentiated 3T3-L1 cells forced to express betaKlotho; conditions: 10 μM; pre-treated for 3 hours, then stimulated with FGF21
Procedure: A betaKlotho expression vector produced by the method described in Example 4 and an empty vector used as a control, into which betaKlotho cDNA had not been inserted, were introduced into 3T3-L1 fibroblasts cultured as described in Example 1 by a lipofection method, thereby obtaining Puromycin-resistant clones. These different types of cells were stimulated with FGF21, and 10 minutes after the stimulation, a cell lysate was prepared. The activation of FRS2 and MAPK that were signaling molecules located downstream of FGFR was examined by a Western blotting method.

[2] = target: T1, humanized FGFR1c (hR1c)-expressing BaF3 cells (Homo sapiens, UniProt P11362); test: DNA synthesis in humanized FGFR1c-expressing BaF3 cells; conditions: humanized FGFR1c only; 10 μg/ml heparin
T1 construct: expressed in transfected cells; host or cells: BaF3 (mouse pro-B) cells; pSRalpha vector
T1 sequence (P11362 22-822): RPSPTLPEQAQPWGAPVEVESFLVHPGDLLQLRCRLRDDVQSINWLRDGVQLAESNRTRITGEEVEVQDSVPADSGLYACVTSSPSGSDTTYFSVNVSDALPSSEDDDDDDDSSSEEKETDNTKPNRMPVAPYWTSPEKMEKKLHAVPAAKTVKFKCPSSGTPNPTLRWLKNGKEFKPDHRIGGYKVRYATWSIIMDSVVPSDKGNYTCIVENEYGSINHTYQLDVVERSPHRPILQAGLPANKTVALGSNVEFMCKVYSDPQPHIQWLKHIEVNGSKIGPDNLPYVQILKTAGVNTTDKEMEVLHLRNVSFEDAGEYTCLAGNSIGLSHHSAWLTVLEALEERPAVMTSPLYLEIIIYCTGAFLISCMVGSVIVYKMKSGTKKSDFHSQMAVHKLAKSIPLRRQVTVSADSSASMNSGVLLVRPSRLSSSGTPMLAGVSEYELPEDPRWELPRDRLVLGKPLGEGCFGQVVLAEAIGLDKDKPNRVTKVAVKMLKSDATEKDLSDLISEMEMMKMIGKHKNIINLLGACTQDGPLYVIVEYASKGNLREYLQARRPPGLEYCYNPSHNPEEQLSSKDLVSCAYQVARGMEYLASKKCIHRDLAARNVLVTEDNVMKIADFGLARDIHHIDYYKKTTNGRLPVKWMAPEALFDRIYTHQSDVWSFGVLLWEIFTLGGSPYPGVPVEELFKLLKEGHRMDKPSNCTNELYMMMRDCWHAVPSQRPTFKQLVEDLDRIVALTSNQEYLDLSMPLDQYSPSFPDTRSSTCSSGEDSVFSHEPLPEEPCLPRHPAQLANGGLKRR
From the text: (§1) In Examples 4, 5, 6, and 7, it was shown that FGF21 reacts with FGFR1c in the presence of betaKlotho. FGFR1c, betaKlotho, FGF21, and the like, which were used in an actual experimental system, were all derived from mice used as typical mammalian models. With regard to these molecules, the homology between a human and a mouse at the amino acid sequence level is extremely high (80% in FGF21, 78% in betaKlotho, and 98% in FGFR1). As a result, naturally, there are no problems regarding the compatibility of the human with the mouse, and thus it is clear that the same results as those from a murine molecule will be obtained even using a humanized molecule. In the present example, as a precautionary measure, an experimental system using a humanized molecule was constructed to confirm such respect, and an experiment was carried out. Specifically, the humanized cDNA of FGFR1c and that of betaKlotho were prepared from a commercially available human RNA sample (Takara Bio Inc.) by PCR. FGFR1c was introduced into an expression vector having an SRalpha promoter (pSRalpha), and betaKlotho was introduced into an expression vector having a CMV promoter (pcDNA3.1; Invitrogen). […] In the presence of heparin, humanized FGF21 was added in various types of concentrations to FGFR1c-expressing cells or FGFR1c/betaKlotho-co-expressing cells, and the amount of DNA synthesized was then measured.

[3] = target: T2, humanized FGFR3c/humanized betaKlotho (hβKlotho)-expressing cells (Homo sapiens, UniProt P22607+Q86Z14, A441S/A461E/A470D/A499P/A500N/A559S/A717S/A734V/A765M/C582S/D512S/D516E/D576E/D580N/D722E/D758Q/D785E/DEL405-414/E426D/E447G/E729D/E768D/F566Y/F579Y/F591S/F767L/G446S/G448T/G548D/G773S/G774F/H721N/I440P/I494L/I698V/I726M/INS417HSQMAVHKLAKSI/INS423TV/INS780T/K420R/K464R/K501R/K583H/L398M/L425A/L457Y/L554I/L645I/L752V/M488L/N428S/N434G/N453G/N644H/P401G/P402T/P436L/P502V/P584N/P778R/Q611K/Q775P/R397K/R399K/R416D/R498K/R568Q/S432N/S468P/S578C/S781C/T435V/T450M/T473V/T504K/T581P/T590S/T753A/T757N/V503T/V523I/V642I/V670I/V751I/V754L); test: DNA synthesis in humanized FGFR3c/humanized betaKlotho-expressing BaF3 cells; conditions: humanized FGFR3c and humanized betaKlotho; 10 μg/ml heparin
T2 construct: expressed in transfected cells; host or cells: BaF3 (mouse pro-B) cells
T2 sequence (P22607 other isoform, or with tags, fused parts or gaps with the stated changes): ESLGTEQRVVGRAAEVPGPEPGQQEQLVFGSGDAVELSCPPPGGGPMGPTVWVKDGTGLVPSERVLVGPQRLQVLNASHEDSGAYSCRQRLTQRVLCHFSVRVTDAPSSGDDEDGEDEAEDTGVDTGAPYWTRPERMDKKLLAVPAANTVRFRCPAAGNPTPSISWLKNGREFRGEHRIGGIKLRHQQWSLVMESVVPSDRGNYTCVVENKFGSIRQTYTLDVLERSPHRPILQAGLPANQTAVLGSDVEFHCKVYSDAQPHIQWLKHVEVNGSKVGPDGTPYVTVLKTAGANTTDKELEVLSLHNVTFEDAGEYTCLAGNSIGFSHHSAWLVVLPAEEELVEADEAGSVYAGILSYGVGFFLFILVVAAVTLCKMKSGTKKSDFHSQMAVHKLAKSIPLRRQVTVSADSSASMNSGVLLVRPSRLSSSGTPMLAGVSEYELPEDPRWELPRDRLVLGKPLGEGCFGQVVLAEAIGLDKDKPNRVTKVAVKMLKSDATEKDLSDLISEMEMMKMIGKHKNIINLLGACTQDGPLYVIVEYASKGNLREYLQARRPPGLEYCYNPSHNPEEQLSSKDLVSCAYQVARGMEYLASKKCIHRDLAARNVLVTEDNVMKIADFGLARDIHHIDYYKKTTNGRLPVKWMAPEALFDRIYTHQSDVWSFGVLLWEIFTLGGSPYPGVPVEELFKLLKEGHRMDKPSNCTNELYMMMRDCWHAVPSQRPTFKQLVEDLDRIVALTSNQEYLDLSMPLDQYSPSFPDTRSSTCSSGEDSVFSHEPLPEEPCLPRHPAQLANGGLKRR
T2 sequence (Q86Z14 whole entry, stated change not applied): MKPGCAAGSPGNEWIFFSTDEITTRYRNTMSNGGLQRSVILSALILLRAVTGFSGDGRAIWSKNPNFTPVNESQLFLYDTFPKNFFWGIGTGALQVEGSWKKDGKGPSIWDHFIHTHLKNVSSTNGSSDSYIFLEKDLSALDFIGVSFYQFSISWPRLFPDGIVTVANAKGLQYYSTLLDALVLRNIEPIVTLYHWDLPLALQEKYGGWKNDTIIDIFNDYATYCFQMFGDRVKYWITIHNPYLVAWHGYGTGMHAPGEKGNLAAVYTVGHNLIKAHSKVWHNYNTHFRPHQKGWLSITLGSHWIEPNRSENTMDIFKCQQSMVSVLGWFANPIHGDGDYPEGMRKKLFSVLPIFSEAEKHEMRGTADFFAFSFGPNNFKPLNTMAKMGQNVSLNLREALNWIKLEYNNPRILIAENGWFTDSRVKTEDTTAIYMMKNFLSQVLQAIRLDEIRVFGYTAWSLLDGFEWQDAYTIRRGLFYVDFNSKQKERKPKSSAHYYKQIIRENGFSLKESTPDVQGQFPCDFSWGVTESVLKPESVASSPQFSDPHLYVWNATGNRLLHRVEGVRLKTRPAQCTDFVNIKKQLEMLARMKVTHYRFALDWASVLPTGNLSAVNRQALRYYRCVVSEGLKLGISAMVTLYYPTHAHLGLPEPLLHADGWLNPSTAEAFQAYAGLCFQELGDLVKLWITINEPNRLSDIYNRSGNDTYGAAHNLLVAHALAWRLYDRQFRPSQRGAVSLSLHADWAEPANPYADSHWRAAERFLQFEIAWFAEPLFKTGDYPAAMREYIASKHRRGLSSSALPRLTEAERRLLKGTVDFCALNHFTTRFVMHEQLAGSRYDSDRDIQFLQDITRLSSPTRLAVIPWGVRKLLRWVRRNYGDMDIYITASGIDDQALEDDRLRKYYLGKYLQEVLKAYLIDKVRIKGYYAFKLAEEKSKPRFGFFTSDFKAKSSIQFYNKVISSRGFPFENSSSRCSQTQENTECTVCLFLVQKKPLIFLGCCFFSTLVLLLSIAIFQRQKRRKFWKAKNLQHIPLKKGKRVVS
Procedure: (§2) The homology between human FGFR3 and mouse FGFR3 at the amino acid sequence level is 93%. […] The cDNA of humanized FGFR3c was prepared from a commercially available human RNA sample (Takara Bio Inc.) by PCR. The sequence of its intracellular portion was substituted with the sequence of humanized FGFR1, and it was then introduced into an expression vector having an SRalpha promoter (pSRalpha). The FGFR3c expression vector was introduced into BaF3 cells by an electroporation method, so as to obtain FGFR3c-expressing BaF3 cells as G418-resistant clones. In the case of FGFR3c/betaKlotho-co-expressing cells, a betaKlotho expression vector was introduced into the FGFR3c-expressing BaF3 cells, so as to obtain the aforementioned cells as Puromycin-resistant clones. In the presence of heparin, humanized FGF21 was added in various types of concentrations to FGFR3c-expressing cells or FGFR3c/betaKlotho-co-expressing cells, and the amount of DNA synthesized was then measured.

[4] = target: T3, humanized FGFR1c/humanized betaKlotho (hβKlotho)-expressing cells (Homo sapiens, UniProt P11362+Q86Z14); test: DNA synthesis in humanized FGFR1c/humanized betaKlotho-expressing BaF3 cells; conditions: humanized FGFR1c and humanized betaKlotho; 10 μg/ml heparin
T3 construct: expressed in transfected cells; host or cells: BaF3 (mouse pro-B) cells; pSRalpha (FGFR1c), pcDNA3.1 (betaKlotho)
T3 sequence (P11362 22-822): as the sequence (P11362 22-822) above
T3 sequence (Q86Z14 whole entry): as the sequence (Q86Z14 whole entry, stated change not applied) above
From the text: as §1

[5] = target: T4, humanized FGFR3c (hR3c)-expressing BaF3 cells (Homo sapiens, UniProt P22607, A441S/A461E/A470D/A499P/A500N/A559S/A717S/A734V/A765M/C582S/D512S/D516E/D576E/D580N/D722E/D758Q/D785E/DEL405-414/E426D/E447G/E729D/E768D/F566Y/F579Y/F591S/F767L/G446S/G448T/G548D/G773S/G774F/H721N/I440P/I494L/I698V/I726M/INS417HSQMAVHKLAKSI/INS423TV/INS780T/K420R/K464R/K501R/K583H/L398M/L425A/L457Y/L554I/L645I/L752V/M488L/N428S/N434G/N453G/N644H/P401G/P402T/P436L/P502V/P584N/P778R/Q611K/Q775P/R397K/R399K/R416D/R498K/R568Q/S432N/S468P/S578C/S781C/T435V/T450M/T473V/T504K/T581P/T590S/T753A/T757N/V503T/V523I/V642I/V670I/V751I/V754L); test: DNA synthesis in humanized FGFR3c-expressing BaF3 cells; conditions: humanized FGFR3c only; 10 μg/ml heparin
T4 construct: expressed in transfected cells; host or cells: BaF3 (mouse pro-B) cells; pSRalpha vector
T4 sequence (P22607 other isoform, or with tags, fused parts or gaps with the stated changes): as the sequence (P22607 other isoform, or with tags, fused parts or gaps with the stated changes) above
Procedure: as §2

[6] = target: T5, FGFR1c/betaKlotho-expressing BaF3 cells (Mus musculus, UniProt P16092+Q99N32); test: DNA synthesis (thymidine incorporation) in FGFR1c/betaKlotho-expressing BaF3 cells; conditions: BaF3 cells expressing FGFR1c and betaKlotho; presence or absence of heparin
T5 construct: the entire-length cDNA of mouse FGFR1c had been cloned; the entire-length cDNA of mouse betaKlotho was cloned into an animal cell expression vector; expressed in transfected cells; host or cells: BaF3 (mouse pro-B) cells
Procedure: A commonly used measurement method is a cell growth stimulating activity measurement method described in Ornitz, D. M., Xu, J., Colvin, J. S., McEwen, D. G., MacArthur, C. A., Coulier, F., Gao, G. and Goldfarb, M. (1996) Receptor specificity of the fibroblast growth factor family. J Biol Chem, 271, 15292-15297. The summary thereof is as follows. FGF used as a measurement target is added to a culture solution containing a cultured cell having an FGF receptor on the surface thereof, and the obtained mixture is cultured for a certain period of time. Thereafter, a labeled thymidine is added to the culture solution, followed by further culture for a certain period of time. By measuring the amount of the labeled thymidine incorporated into polymeric DNA during the culture, the degree of FGF to activate DNA synthesis is evaluated. (In the present invention as well, this method was adopted when the activity of FGF21 was measured in Examples 4, 5, 6, 8, 9, and 10.)
FGFR1c-expressing BaF3 cells and FGFR1c- and betaKlotho-expressing BaF3 cells were prepared as follows. In the case of FGFR1c-expressing BaF3 cells, an animal cell expression vector into which the entire-length cDNA of mouse FGFR1c had been cloned (described in Ornitz, D. M., Xu, J., Colvin, J. S., McEwen, D. G., MacArthur, C. A., Coulier, F., Gao, G. and Goldfarb, M. (1996) Receptor specificity of the fibroblast growth factor family. J Biol Chem, 271, 15292-15297.) was introduced into BaF3 cells by an electroporation method. The cells were then cultured in the presence of G418 for approximately 2 weeks, so as to obtain drug-resistant clones. Thereafter, such clones were obtained as those capable of growing as a result of FGF1 stimulation. In the case of both FGFR1c- and betaKlotho-expressing BaF3 cells, the entire-length cDNA of mouse betaKlotho was cloned into an animal cell expression vector, and it was then introduced into the FGFR1c-expressing BaF3 cells. The cells were then cultured in the presence of Puromycin and G418 for approximately 2 weeks, so as to obtain drug-resistant clones. In the case of only betaKlotho-expressing BaF3 cells, a betaKlotho-expressing vector was introduced into BaF3 cells, and Puromycin-resistant clones were then obtained. The BaF3 cells, into which the aforementioned genes had been each introduced, were maintained in an RPMI1640 medium containing 10% FBS and interleukin 3 (IL3, supplied by adding a 5% condition medium of WEHI-3 cells). For the growth stimulation experiment, the cells were washed with an RPMI1640 medium, and they were then suspended in an RPMI1640 medium containing 10% FBS, followed by inoculating the suspension on a culture plate. Thereafter, the resultant cells were used.
Immediately after inoculation, BaF3 cells that had expressed each clone and only FGFR1c were stimulated by addition of FGF21 (open bar) or PBS (filled bar) used as a control in the presence of heparin, and they were then cultured for 42 hours. Thereafter, tritium-labeled thymidine was added to the culture solution, and the culture was further continued for 6 hours. Thereafter, the amount of thymidine incorporated into the cells was measured, so as to evaluate DNA synthesis. A DNA synthesis value obtained when the cells were not stimulated with FGF21 was defined as 1, and the ratio of a DNA synthesis value obtained by stimulating with FGF21 to the aforementioned DNA synthesis value was expressed using magnification. […]

[7] = target: T6, BaF3 cells that had co-expressed FGFR1c and Klotho (Mus musculus, UniProt O35082+P16092); test: DNA synthesis in BaF3 cells co-expressing FGFR1c and Klotho; conditions: presence or absence of heparin
T6 construct: the entire-length cDNA of mouse FGFR1c had been cloned; expressed in transfected cells; host or cells: BaF3 (mouse pro-B) cells
T6 sequence (P16092 22-822): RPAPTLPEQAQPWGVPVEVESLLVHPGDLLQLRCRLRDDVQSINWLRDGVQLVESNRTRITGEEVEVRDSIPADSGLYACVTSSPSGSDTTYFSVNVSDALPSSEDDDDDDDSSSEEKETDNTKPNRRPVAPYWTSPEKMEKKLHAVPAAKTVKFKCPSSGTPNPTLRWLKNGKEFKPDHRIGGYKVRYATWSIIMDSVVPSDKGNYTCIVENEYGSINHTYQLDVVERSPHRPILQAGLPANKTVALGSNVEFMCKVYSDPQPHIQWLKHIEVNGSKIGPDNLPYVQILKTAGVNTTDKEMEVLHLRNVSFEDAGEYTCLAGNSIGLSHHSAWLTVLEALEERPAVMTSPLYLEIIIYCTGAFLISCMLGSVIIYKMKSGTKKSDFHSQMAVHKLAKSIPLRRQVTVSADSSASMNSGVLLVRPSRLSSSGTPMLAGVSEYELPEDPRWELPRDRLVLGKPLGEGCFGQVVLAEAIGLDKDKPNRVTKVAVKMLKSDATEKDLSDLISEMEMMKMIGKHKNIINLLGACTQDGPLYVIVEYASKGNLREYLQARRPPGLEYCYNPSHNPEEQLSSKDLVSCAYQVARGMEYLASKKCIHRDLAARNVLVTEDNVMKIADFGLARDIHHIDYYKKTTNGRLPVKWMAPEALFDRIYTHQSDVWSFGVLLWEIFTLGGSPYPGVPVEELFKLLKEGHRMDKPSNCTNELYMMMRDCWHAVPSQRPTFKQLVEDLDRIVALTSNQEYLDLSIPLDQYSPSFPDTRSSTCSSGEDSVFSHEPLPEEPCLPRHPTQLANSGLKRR
T6 sequence (O35082 35-1014): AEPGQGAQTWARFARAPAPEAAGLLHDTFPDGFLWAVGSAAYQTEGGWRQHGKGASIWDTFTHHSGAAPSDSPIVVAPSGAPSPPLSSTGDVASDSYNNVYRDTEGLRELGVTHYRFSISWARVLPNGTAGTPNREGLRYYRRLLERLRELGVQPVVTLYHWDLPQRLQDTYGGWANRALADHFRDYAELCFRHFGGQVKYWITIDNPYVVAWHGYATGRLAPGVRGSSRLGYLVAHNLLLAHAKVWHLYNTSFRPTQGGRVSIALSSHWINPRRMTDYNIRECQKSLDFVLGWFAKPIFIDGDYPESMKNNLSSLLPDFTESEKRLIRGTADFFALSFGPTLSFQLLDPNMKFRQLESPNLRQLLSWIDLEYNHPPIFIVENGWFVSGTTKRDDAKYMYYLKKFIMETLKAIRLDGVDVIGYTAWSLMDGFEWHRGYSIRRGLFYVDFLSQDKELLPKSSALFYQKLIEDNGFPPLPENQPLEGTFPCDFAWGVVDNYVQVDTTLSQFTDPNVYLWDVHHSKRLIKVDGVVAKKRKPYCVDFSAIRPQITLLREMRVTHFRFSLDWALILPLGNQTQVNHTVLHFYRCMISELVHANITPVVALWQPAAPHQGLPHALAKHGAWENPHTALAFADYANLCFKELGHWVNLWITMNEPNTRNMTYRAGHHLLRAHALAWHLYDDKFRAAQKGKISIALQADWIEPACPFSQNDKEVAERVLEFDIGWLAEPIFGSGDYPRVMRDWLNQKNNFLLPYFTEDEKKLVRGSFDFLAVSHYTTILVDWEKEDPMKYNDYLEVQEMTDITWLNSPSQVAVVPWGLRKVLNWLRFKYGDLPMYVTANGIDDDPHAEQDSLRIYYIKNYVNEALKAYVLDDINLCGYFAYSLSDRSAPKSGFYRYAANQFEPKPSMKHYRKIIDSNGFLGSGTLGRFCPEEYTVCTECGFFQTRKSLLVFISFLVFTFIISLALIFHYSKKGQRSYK
Procedure: Specifically, BaF3 cell that had co-expressed FGFR1c and betaKlotho and BaF3 cells that had co-expressed FGFR1c and Klotho were prepared by the same transformation method and under the same culture conditions as those applied in Example 4. Thereafter, FGF21 and FGF23 were added to both types of transformed cells in the presence or absence of heparin, and the amount of DNA synthesized was then measured.

Molecule: Cc1c[nH]c(/C=C2\C(=O)Nc3ccccc32)c1CCC(=O)O [SU5402, reference compound]
degree of phosphorylation of FRS2 and MAPK on FGF21 stimulation after inhibitor pre-treatment [1]: decreased

B1: humanized FGF21: FGF21 protein with human amino acid sequence, prepared in Escherichia coli from human cDNA (protein)
chain: HPIPDSSPLLQFGGQVRQRYLYTDDAQQTEAHLEIREDGTVGGAADQSPESLLQLKALKPGVIQILGVKTSRFLCQRPDGALYGSLHFDPEACSFRELLLEDGYNVYQSEAHGLPLHLPGNKSPHRDPAPRGPARFLPLPGLPPALPEPPGILAPQPPDVGSSDPLSMVGPSQGRSPSYAS
amount of DNA synthesized (thymidine incorporation) [2]: activated only the FGFR1c/betaKlotho-co-expressing cells
amount of DNA synthesized (thymidine incorporation) [3]: activated; also recorded: increased the amount of thymidine incorporated into the cells in a dose-dependent manner
amount of DNA synthesized (thymidine incorporation) [4]: activated; also recorded: increased the amount of thymidine incorporated into the cells in a dose-dependent manner
amount of DNA synthesized (thymidine incorporation) [5]: activated only the FGFR3c/betaKlotho-co-expressing cells

DNA synthesis (thymidine incorporated into the cells) [6]: did not react with FGFR1c
amount of DNA synthesized [7]: able to act on FGFR1c-expressing cells
B2: FGF23: FGF having high structural similarity to FGF21; Klotho acts as its co-receptor (protein, UniProt Q9GZV9 25-251, looked up)
Fibroblast growth factor 23: YPNASPLLGSSWGGLIHLYTATARNSYHLQIHKNGHVDGAPHQTIYSALMIRSEDAGFVVITGVMSRRYLCMDFRGNIFGSHYFDPENCRFQHQTLENGYDVYHSPQYHFLVSLGRAKRAFLPGMNPPPYSQFLSRRNEIPLIHFNTPIPRRHTRSAEDDSERDPLNVLKPRARMTPAPASCSQELPSAEDNSPMASDPLGVVRGGRVNTHAGGTGPEGCRPFAKFI
